Measured values published in article PMC2606688, “High-fidelity correction of genomic uracil by human mismatch repair activities”.

What was measured:
[1] = biological target: T1, MSH2 (MutSα subunit);MSH6 (MutSα subunit) (Homo sapiens;Homo sapiens, UniProt P43246;P52701 1-934;1-1360, |); test: EMSA; apparent Kd; homoduplex competitor EDL365/EDL366 in reaction; no Mg2+, 1 mM EDTA; 25 mM Tris pH 7.7, 100 mM KCl, 1 mM EDTA, 1 mM DTT, 7.5% glycerol, 10 fmol labeled duplex in 30 µl, homoduplex competitor, on ice 5 min; 6% native PAGE in 0.5x; details: protein: recombinant;recombinant; tags: ;; copies: 1;1; label: 5'-32P on strand 1 (EDL56); blunt, 30 bp, single U•G mismatch
[2] = biological target: T1, MSH2 (MutSα subunit);MSH6 (MutSα …); test: competition; unlabeled N1 at 50-fold molar excess against labeled N1 (EMSA); 25 mM Tris pH 7.7, 100 mM KCl, 1 mM EDTA, 1 mM DTT, 7.5% glycerol, 10 fmol labeled duplex in 30 µl, homoduplex competitor, on ice 5 min; 6% native PAGE in 0.5x; details: protein: recombinant;recombinant; tags: ;; copies: 1;1; label: 5'-32P on strand 1 (EDL56); blunt, 30 bp, single U•G mismatch

B1: U•G duplex (EDL56/EDL364) (dsDNA)
DNA 1: GCCGAATTTCTAGAATUGAAAGCTTGCTAG
DNA 2: CTAGCAAGCTTTCGATTCTAGAAATTCGGC
modifications: deoxyuridine at position 17 of strand 1, mispaired with G
Kd [1]: 70 nM | binding signal [2]: > 5 fold decrease of probe binding
